In paper PMC4084830 (Nature structural & molecular biology, 2013):

Key:
[1] = target: recombinant mouse glucokinase (GK) isoform 1 (mouse) (UniProt P52792)
glucokinase (GK) = target: T1, glucokinase (GK) (Mus musculus, UniProt P52792); assay: Steady-state kinetics of recombinant wild-type mouse glucokinase; assay type: biochemical; details: vs vehicle
T1 sequence (P52792 1-465): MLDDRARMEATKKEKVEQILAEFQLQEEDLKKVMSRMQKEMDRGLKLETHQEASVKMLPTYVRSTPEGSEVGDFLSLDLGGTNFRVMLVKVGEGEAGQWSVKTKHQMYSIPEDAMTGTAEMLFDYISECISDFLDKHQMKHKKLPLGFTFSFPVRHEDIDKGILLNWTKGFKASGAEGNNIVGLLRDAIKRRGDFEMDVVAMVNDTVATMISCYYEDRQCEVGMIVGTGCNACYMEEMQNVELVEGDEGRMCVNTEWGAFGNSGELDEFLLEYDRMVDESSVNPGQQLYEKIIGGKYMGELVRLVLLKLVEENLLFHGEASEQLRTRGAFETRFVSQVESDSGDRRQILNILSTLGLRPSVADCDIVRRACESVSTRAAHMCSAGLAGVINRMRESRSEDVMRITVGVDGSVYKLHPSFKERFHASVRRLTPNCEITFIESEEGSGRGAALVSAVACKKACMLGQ

Compound	GK Vmax (% of vehicle), G6PDH-coupled assay with 5 μM SAHB and 7.5 nM GK, 37 °C [1]	effect on GK kinetic profile (in words) (glucokinase (GK); 5 μM BAD SAHBs and/or 3 μM RO0281675)	increase in Vmax (glucokinase (GK); 5 μM BAD SAHB or 3 μM RO0281675)
BAD SAHBA (S118pS) (peptide)	129 % veh.		
CS(=O)(=O)c1ccc([C@@H](CC2CCCC2)C(=O)Nc2nccs2)cc1 [RO0281675]		no significant effect on the Hill coefficient	approximately 40%
BAD SAHBA (S118D) (peptide)	144 % veh.		
BAD SAHBA (S118L) (peptide)	89.6 % veh.		
